Test results taken from article PMC9482650, “Quantitative fragmentomics allow affinity mapping of interactomes” (Nature Communications, 2022).

T1: NHERF3_4, Q5T2W1
T1 sequence (Q5T2W1 373-468, limits assumed, looked up): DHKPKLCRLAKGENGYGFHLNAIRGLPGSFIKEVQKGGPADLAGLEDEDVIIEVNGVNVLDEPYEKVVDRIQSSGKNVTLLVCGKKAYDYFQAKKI

T2: CARD11, Q9BXL7
T2 sequence (Q9BXL7 662-765, limits assumed, looked up): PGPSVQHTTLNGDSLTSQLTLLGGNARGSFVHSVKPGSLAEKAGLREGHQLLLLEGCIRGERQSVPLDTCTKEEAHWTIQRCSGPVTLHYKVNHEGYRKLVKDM

T3: SNTG2, Q9NY99
T3 sequence (Q9NY99 68-166, limits assumed, looked up): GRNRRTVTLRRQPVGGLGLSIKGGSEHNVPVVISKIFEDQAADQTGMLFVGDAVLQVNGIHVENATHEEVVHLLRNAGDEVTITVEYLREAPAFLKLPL

T4: HTRA4, P83105
T4 sequence (P83105 378-476, limits assumed, looked up): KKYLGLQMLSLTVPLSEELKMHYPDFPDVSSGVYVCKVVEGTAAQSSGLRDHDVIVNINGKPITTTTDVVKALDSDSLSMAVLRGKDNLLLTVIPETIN

T5: MPP2, Q14168
T5 sequence (Q14168 180-250, limits assumed, looked up): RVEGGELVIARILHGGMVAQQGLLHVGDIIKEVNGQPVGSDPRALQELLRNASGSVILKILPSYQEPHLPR

T6: MPDZ_5, O75970
T6 sequence (O75970 695-796, limits assumed, looked up): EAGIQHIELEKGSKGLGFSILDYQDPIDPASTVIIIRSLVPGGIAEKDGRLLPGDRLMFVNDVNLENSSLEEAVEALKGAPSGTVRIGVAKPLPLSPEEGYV

T7: FRMPD1, Q5SYB0
T7 sequence (Q5SYB0 52-145, limits assumed, looked up): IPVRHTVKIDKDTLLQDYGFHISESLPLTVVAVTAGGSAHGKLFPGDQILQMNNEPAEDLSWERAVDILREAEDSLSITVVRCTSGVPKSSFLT

T8: SNTB1, Q13884
T8 sequence (Q13884 107-205, limits assumed, looked up): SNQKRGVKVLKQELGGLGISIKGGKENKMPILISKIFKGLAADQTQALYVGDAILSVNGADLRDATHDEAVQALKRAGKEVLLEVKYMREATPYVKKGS

T9: LRRC7, Q96NW7
T9 sequence (Q96NW7 1440-1537, limits assumed, looked up): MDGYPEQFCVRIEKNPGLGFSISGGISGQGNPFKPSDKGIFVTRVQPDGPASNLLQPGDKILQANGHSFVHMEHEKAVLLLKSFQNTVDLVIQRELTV

T10: PTPN13_1, Q12923
T10 sequence (Q12923 1088-1188, limits assumed, looked up): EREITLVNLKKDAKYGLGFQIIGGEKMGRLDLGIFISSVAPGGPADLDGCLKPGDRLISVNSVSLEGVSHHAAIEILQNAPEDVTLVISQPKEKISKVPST

T11: SIPA1L2, Q9P2F8
T11 sequence (Q9P2F8 945-1036, limits assumed, looked up): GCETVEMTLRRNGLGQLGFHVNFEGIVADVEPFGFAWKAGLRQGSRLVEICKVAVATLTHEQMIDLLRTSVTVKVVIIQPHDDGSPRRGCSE


Experiments:
Experiment in all cases: holdup assay
Design in all cases: key: below the threshold = too weak to quantify, mostly under pKd 3.1 to 4
Conditions in all cases: plain residues with an end cap or a label only (N-terminal biotin on a linker: ado-ado)
MAGI3_2, Q5TCQ9 = target: MAGI3_2, Q5TCQ9
MAGI3_2, Q5TCQ9, sequence (Q5TCQ9 398-503): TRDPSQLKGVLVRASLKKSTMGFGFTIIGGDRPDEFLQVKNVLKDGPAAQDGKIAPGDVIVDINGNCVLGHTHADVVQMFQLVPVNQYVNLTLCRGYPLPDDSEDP

PICK1, Q9NRD5 = target: PICK1, Q9NRD5
PICK1, Q9NRD5, sequence (Q9NRD5 17-115): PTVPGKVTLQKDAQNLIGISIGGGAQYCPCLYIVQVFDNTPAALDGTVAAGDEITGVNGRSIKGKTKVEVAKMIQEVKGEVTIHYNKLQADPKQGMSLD

NHERF3_4, Q5T2W1 = target: T1, NHERF3_4, Q5T2W1
CARD11, Q9BXL7 = target: T2, CARD11, Q9BXL7
DLG1_2, Q12959 = target: DLG1_2, Q12959
DLG1_2, Q12959, sequence (Q12959 314-412): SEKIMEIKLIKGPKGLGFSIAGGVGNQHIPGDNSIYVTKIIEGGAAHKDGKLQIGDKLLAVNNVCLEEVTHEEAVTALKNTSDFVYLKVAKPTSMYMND

SNTG2, Q9NY99 = target: T3, SNTG2, Q9NY99
HTRA1, Q92743 = target: HTRA1, Q92743
HTRA1, Q92743, sequence (Q92743 360-477): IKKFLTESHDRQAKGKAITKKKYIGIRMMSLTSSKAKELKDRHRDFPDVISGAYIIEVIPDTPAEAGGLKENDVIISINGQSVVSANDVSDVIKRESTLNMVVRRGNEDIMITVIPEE

GRASP, Q7Z6J2 = target: GRASP, Q7Z6J2
GRASP, Q7Z6J2, sequence (Q7Z6J2 96-193): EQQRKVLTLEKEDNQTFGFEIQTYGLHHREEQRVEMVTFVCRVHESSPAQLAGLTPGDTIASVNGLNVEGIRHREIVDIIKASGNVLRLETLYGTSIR

HTRA4, P83105 = target: T4, HTRA4, P83105
MPP2, Q14168 = target: T5, MPP2, Q14168
MPDZ_5, O75970 = target: T6, MPDZ_5, O75970
FRMPD2_2, Q68DX3 = target: FRMPD2_2, Q68DX3
FRMPD2_2, Q68DX3, sequence (Q68DX3 944-1038): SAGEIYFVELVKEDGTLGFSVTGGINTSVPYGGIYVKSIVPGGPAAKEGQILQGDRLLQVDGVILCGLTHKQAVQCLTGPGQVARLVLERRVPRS

LAP2, Q96RT1 = target: LAP2, Q96RT1
LAP2, Q96RT1, sequence (Q96RT1 other isoform, or with tags, fused parts or gaps): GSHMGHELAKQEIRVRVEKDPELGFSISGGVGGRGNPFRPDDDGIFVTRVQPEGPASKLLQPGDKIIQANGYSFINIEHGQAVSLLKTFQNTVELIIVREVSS

TJP1_3, Q07157 = target: TJP1_3, Q07157
TJP1_3, Q07157, sequence (Q07157 416-512): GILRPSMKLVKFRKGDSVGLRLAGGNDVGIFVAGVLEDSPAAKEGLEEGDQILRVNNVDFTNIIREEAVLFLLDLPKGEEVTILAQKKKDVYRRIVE

FRMPD1, Q5SYB0 = target: T7, FRMPD1, Q5SYB0
SNTB1, Q13884 = target: T8, SNTB1, Q13884
GRIP2_3, Q9C0E4 = target: GRIP2_3, Q9C0E4
GRIP2_3, Q9C0E4, sequence (Q9C0E4 238-339): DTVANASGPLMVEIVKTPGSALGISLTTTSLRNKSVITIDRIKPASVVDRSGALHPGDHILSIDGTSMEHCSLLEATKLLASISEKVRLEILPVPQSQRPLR

LRRC7, Q96NW7 = target: T9, LRRC7, Q96NW7
Inadl_5, Q8NI35 = target: Inadl_5, Q8NI35
Inadl_5, Q8NI35, sequence (Q8NI35 673-780): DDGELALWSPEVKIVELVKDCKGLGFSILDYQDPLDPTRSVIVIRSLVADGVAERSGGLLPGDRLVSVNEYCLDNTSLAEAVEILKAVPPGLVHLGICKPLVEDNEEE

DLG4_2, P78352 = target: DLG4_2, P78352
DLG4_2, P78352, sequence (P78352 155-259): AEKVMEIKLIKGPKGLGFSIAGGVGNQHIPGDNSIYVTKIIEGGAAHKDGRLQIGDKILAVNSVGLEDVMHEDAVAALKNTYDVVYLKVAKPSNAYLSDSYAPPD

NHERF2_2, Q15599 = target: NHERF2_2, Q15599
NHERF2_2, Q15599, sequence (Q15599 142-238): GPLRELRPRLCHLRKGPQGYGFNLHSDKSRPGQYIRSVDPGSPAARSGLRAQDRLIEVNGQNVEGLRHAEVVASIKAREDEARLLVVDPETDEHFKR

NHERF4_1, Q86UT5-2 = target: NHERF4_1, Q86UT5-2
NHERF4_1, Q86UT5-2, sequence (Q86UT5 other isoform, or with tags, fused parts or gaps): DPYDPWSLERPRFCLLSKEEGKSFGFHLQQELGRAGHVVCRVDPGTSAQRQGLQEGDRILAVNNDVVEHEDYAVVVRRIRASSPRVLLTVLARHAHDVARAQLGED

PTPN13_1, Q12923 = target: T10, PTPN13_1, Q12923
Inadl_1, Q8NI35 = target: Inadl_1, Q8NI35
Inadl_1, Q8NI35, sequence (Q8NI35 113-229): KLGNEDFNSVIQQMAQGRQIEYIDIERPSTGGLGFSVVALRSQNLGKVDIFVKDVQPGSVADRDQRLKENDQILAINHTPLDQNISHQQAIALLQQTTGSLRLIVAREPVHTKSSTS

DLG4_3, P78352 = target: DLG4_3, P78352
DLG4_3, P78352, sequence (P78352 306-403): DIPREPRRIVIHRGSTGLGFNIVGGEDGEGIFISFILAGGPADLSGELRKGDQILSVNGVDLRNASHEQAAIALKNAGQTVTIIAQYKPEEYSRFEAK

SIPA1L2, Q9P2F8 = target: T11, SIPA1L2, Q9P2F8

| Binder | pKd (MAGI3_2, Q5TCQ9) | pKd (PICK1, Q9NRD5) | pKd (NHERF3_4, Q5T2W1) | pKd (CARD11, Q9BXL7) | pKd (DLG1_2, Q12959) | pKd (SNTG2, Q9NY99) | pKd (HTRA1, Q92743) | pKd (GRASP, Q7Z6J2) | pKd (HTRA4, P83105) | pKd (MPP2, Q14168) | pKd (MPDZ_5, O75970) | pKd (FRMPD2_2, Q68DX3) | pKd (LAP2, Q96RT1) | pKd (TJP1_3, Q07157) | pKd (FRMPD1, Q5SYB0) | pKd (SNTB1, Q13884) | pKd (GRIP2_3, Q9C0E4) | pKd (LRRC7, Q96NW7) | pKd (Inadl_5, Q8NI35) | pKd (DLG4_2, P78352) | other results |
| --- | --- | --- | --- | --- | --- | --- | --- | --- | --- | --- | --- | --- | --- | --- | --- | --- | --- | --- | --- | --- | --- |
| PEEGKKQSQC [GAGE12J, A6NER3] | below the threshold | below the threshold | below the threshold | below the threshold | below the threshold | 3.51 | below the threshold | below the threshold | below the threshold | below the threshold | below the threshold | below the threshold | below the threshold | below the threshold | below the threshold | below the threshold | below the threshold | below the threshold | below the threshold | 3.59 | pKd (NHERF2_2, Q15599): 3.48; pKd (NHERF4_1, Q86UT5-2): 3.79; pKd (PTPN13_1, Q12923): below the threshold; pKd (Inadl_1, Q8NI35): below the threshold; pKd (DLG4_3, P78352): 3.75; pKd (SIPA1L2, Q9P2F8): below the threshold |
| NPETRDETQL [KCNT1, Q5JUK3] | below the threshold | below the threshold | below the threshold | below the threshold | 3.88 | 4.08 | below the threshold | below the threshold | below the threshold | below the threshold | below the threshold | below the threshold | below the threshold | below the threshold | below the threshold | 4.35 | below the threshold | below the threshold | below the threshold | 3.59 | pKd (NHERF2_2, Q15599): 4.83; pKd (NHERF4_1, Q86UT5-2): 3.9; pKd (PTPN13_1, Q12923): 3.54; pKd (Inadl_1, Q8NI35): below the threshold; pKd (DLG4_3, P78352): below the threshold; pKd (SIPA1L2, Q9P2F8): below the threshold |

The next lines start with results.

| pKd (MAGI3_2, Q5TCQ9) | pKd (PICK1, Q9NRD5) | pKd (NHERF3_4, Q5T2W1) | pKd (CARD11, Q9BXL7) | pKd (DLG1_2, Q12959) | pKd (SNTG2, Q9NY99) | pKd (HTRA1, Q92743) | pKd (GRASP, Q7Z6J2) | pKd (HTRA4, P83105) | pKd (MPP2, Q14168) | pKd (MPDZ_5, O75970) | pKd (FRMPD2_2, Q68DX3) | pKd (LAP2, Q96RT1) | pKd (TJP1_3, Q07157) | pKd (FRMPD1, Q5SYB0) | pKd (SNTB1, Q13884) | pKd (GRIP2_3, Q9C0E4) | pKd (LRRC7, Q96NW7) | pKd (Inadl_5, Q8NI35) | pKd (DLG4_2, P78352) | Binder | other results |
| --- | --- | --- | --- | --- | --- | --- | --- | --- | --- | --- | --- | --- | --- | --- | --- | --- | --- | --- | --- | --- | --- |
| 3.77 | below the threshold | below the threshold | below the threshold | 4.3 | 4.04 | 3.85 | 3.91 | below the threshold | below the threshold | below the threshold | 4.27 | 4.46 | below the threshold | below the threshold | 4.46 | below the threshold | below the threshold | below the threshold | 4.22 | PDSNPEESSV [SEMA4C, Q9C0C4] | pKd (NHERF2_2, Q15599): 3.88; pKd (NHERF4_1, Q86UT5-2): 3.7; pKd (PTPN13_1, Q12923): below the threshold; pKd (Inadl_1, Q8NI35): below the threshold; pKd (DLG4_3, P78352): below the threshold; pKd (SIPA1L2, Q9P2F8): below the threshold |
| below the threshold | below the threshold | below the threshold | below the threshold | below the threshold | below the threshold | 3.84 | below the threshold | below the threshold | below the threshold | below the threshold | below the threshold | below the threshold | below the threshold | below the threshold | below the threshold | below the threshold | below the threshold | below the threshold | below the threshold | ASGLDKRDYV [CLDN9, O95484] | pKd (NHERF2_2, Q15599): below the threshold; pKd (NHERF4_1, Q86UT5-2): below the threshold; pKd (PTPN13_1, Q12923): below the threshold; pKd (Inadl_1, Q8NI35): below the threshold; pKd (DLG4_3, P78352): below the threshold; pKd (SIPA1L2, Q9P2F8): below the threshold |
| 5.32 | below the threshold | below the threshold | below the threshold | 5.61 | 4.51 | 4.6 | 3.78 | 3.74 | below the threshold | 3.58 | 4.1 | 4.03 | below the threshold | below the threshold | 5.17 | below the threshold | 3.83 | 3.56 | 5.47 | PKLMGVETVV [DUSP10, Q9Y6W6] | pKd (NHERF2_2, Q15599): below the threshold; pKd (NHERF4_1, Q86UT5-2): below the threshold; pKd (PTPN13_1, Q12923): 3.48; pKd (Inadl_1, Q8NI35): below the threshold; pKd (DLG4_3, P78352): 4.01; pKd (SIPA1L2, Q9P2F8): below the threshold |
| 3.63 | below the threshold | below the threshold | below the threshold | below the threshold | 3.68 | below the threshold | below the threshold | below the threshold | below the threshold | below the threshold | below the threshold | below the threshold | below the threshold | below the threshold | below the threshold | below the threshold | below the threshold | below the threshold | 3.6 | SSGSTSSSRI [ADGRG1, Q9Y653] | pKd (NHERF2_2, Q15599): 3.71; pKd (NHERF4_1, Q86UT5-2): below the threshold; pKd (PTPN13_1, Q12923): below the threshold; pKd (Inadl_1, Q8NI35): below the threshold; pKd (DLG4_3, P78352): below the threshold; pKd (SIPA1L2, Q9P2F8): below the threshold |
